Measured values from patent publication US20240376151A1, “STAPLED PEPTIDES AND METHODS THEREOF” (FOG PHARMACEUTICALS, INC., priority 2022, published 2024).

Biological target: T1, beta-catenin (Homo sapiens, UniProt P35222)
T1 construct: made in house; host or cells: E. coli BL21 (DE3) pLysS
T1 sequence (P35222 134-665): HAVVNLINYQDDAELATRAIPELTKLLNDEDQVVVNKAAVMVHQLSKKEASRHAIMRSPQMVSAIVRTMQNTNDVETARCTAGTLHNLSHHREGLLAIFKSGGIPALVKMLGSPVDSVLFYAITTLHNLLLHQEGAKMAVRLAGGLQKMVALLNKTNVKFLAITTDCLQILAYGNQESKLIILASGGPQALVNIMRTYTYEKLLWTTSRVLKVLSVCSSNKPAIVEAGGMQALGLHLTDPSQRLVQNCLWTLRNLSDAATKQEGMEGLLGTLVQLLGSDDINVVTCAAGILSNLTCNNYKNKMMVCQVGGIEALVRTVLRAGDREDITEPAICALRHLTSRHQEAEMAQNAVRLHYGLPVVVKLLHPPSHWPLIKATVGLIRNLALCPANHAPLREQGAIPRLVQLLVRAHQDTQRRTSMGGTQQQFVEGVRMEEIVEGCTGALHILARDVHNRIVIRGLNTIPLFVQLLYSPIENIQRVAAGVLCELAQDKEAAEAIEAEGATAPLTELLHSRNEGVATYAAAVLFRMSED
Test: Phage Library Screening with NGS, beta-catenin
Assay type: binding
Settings: for Target Concentration 10 (phage screen NGS readout): beta-catenin target concentration 10; for Target Concentration 10 (phage screen NGS readout) / Target Concentration 30 (phage screen NGS readout) / Target Concentration 100 (phage screen NGS readout) / Target Concentration 300 (phage screen NGS readout): no competitor; for Target Concentration 30 (phage screen NGS readout): beta-catenin target concentration 30; for Target Concentration 100 (phage screen NGS readout): beta-catenin target concentration 100; for Target Concentration 300 (phage screen NGS readout): beta-catenin target concentration 300; for Target Concentration 1000 (phage screen NGS readout): beta-catenin target concentration 1000

Target Concentration BLANK (phage screen NGS readout) (first column)	Target Concentration BLANK (phage screen NGS readout) (fourth column)	Target Concentration BLANK (phage screen NGS readout) (second column)	Target Concentration BLANK (phage screen NGS readout) (third column)	Target Concentration 10 (phage screen NGS readout)	Target Concentration 30 (phage screen NGS readout)	Target Concentration 100 (phage screen NGS readout)	Target Concentration 300 (phage screen NGS readout)	Target Concentration 1000 (phage screen NGS readout) (first 1000 column)	Target Concentration 1000 (phage screen NGS readout) (second 1000 column)	Sequence
0	0	0	0	0	10	55	54	67	89	DPAEWDCMHAALICEVH
0	0	0	0	0	0	11	33	33	27	DPAEWICEHAALLCSVL
0	6	2	0	78	201	907	1681	1740	1609	DPAEWQCEHAALLCEQQ
2	1	0	0	0	12	47	156	148	155	DPAEWYCEHAALVCTNH
0	0	0	0	2	0	10	7	18	16	DPAFESCFLAAHICYWE
0	0	0	0	0	1	10	15	28	15	DPAFLDCHIAAWTCNEF
0	0	2	1	0	1	21	15	52	25	DPAFLTCHIAAWACSEQ
0	0	0	0	0	0	11	13	12	23	DPAHLMCHYAAWDCRDE
1	0	0	0	2	15	60	231	177	234	DPAHWHCEHAALLCASV
0	0	0	2	13	6	51	132	140	149	DPAHWRCEHAALLCWYN
0	0	0	0	0	1	0	31	19	64	DPAHWSCEWAAEHCRLI
0	0	1	0	0	2	47	96	104	118	DPAHWVCEHAALNCDQN
0	1	1	4	0	6	118	266	325	417	DPAIADCDWAAEHCDLL
0	0	0	0	0	0	2	3	19	0	DPAIFNCTMAALECTQI
0	0	0	0	0	0	0	0	7	0	DPAIIHCYQAAFQCQYM
